Results on 6 sequences are retold here after the supplement of paper PMC5998384.

In data set [1] the test system is HeLa Kyoto. Briefly: solubility in G1/S (NP-40 vs SDS abundance) (log2 ratio); higher = more soluble. The following applies: cell cycle stage: G1/S.
The subject of data set [2] is HeLa Kyoto. As to the kind of experiment: solubility change mitosis vs G1/S (difference of NP-40 vs SDS log2 ratios) (log2 ratio difference); higher = more soluble in mitosis.
For data set [3], the system named is HeLa Kyoto. As to the kind of experiment: thermal stability score vs G1/S (z-score of summed log2 fold changes over temperatures); higher = more thermally stable than in G1/S.
For data set [4], the system named is HeLa Kyoto. Briefly: melting temperature (median over replicates), in situ; higher = more thermally stable.
The mark [5] stands for this setting: cell cycle stage: early G1 (4.5 h after nocodazole release).
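Throughout, for melting temperature (median over replicates), in situ: HeLa Kyoto cells synchronized by double thymidine or nocodazole block, proteins quantified by TMT10plex mass spectrometry, three independent biological replicates.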
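Throughout, for solubility change mitosis vs G1/S (difference of NP-40 vs SDS log2 ratios): synchronized HeLa Kyoto cells (double thymidine block for G1/S, nocodazole release for mitosis), protein amounts in NP-40 versus SDS lysates quantified by mass spectrometry, three biological replicates.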
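Throughout, for solubility in G1/S (NP-40 vs SDS abundance): HeLa Kyoto cells arrested at G1/S by double thymidine block, proteins quantified by TMT10plex mass spectrometry in mild NP-40 versus SDS extracts, three biological replicates.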
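Throughout, for thermal stability score vs G1/S (z-score of summed log2 fold changes over temperatures): synchronized HeLa Kyoto cells, proteins quantified by TMT10plex mass spectrometry, three biological replicates, mitosis taken 0.5 h after nocodazole release, G1/S directly after double thymidine block.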

As for “MASSRCPAPRGCRCLPGASLAWLGTVLLLLADWVLLRTALPRIFSLLVPTALPLLRVWAVGLSRWAVLWLGACGVLRATVGSKSENAGAQGWLAALKPLAAALGLALPGLALFRELISWGAPGSADSTRLLHWGSHPTAFVVSYAAALPAAALWHKLGSLWVPGGQGGSGNPVRRLLGCLGSETRRLSLFLVLVVLSSLGEMAIPFFTGRLTDWILQDGSADTFTRNLTLMSILTIASAVLEFVGDGIYNNTMGHVHSHLQGEVFGAVLRQETEFFQQNQTGNIMSRVTEDTSTLSDSLSENLSLFLWYLVRGLCLLGIMLWGSVSLTMVTLITLPLLFLLPKKVGKWYQLLEVQVRESLAKSSQVAIEALSAMPTVRSFANEEGEAQKFREKLQEIKTLNQKEAVAYAVNSWTTSISGMLLKVGILYIGGQLVTSGAVSSGNLVTFVLYQMQFTQAVEVLLSIYPRVQKAVGSSEKIFEYLDRTPRCPPSGLLTPLHLEGLVQFQDVSFAYPNRPDVLVLQGLTFTLRPGEVTALVGPNGSGKSTVAALLQNLYQPTGGQLLLDGKPLPQYEHRYLHRQVAAVGQEPQVFGRSLQENIAYGLTQKPTMEEITAAAVKSGAHSFISGLPQGYDTEVDEAGSQLSGGQRQAVALARALIRKPCVLILDDATSALDANSQLQVEQLLYESPERYSRSVLLITQHLSLVEQADHILFLEGGAIREGGTHQQLMEKKGCYWAMVQAPADAPE [TAP1]”, the “solubility in G1/S (log2)” value with HeLa Kyoto [1] was -0.0535. Further, in the data set with HeLa Kyoto [2], the “solubility change mitosis (log2)” value is -0.112. Also, the thermal stability score was found to be 0.594 in the data set on HeLa Kyoto [3] (setting [5]) and 1.74 with HeLa Kyoto [3] (cell cycle stage: mitosis). The results for the melting temperature in the data set with HeLa Kyoto [4] (cell cycle stage: G1/S) and in the data set on HeLa Kyoto [4] (cell cycle stage: mitosis) were 49.8 °C and 50.5 °C, respectively.
With “MSDDAGDTLATGDKAEVTEMPNSDSLPEDAEVHCDSAAVSHEPTPADPRGEGHENAAVQGAGAAAIGPPVQPQDANALEPPLNGDVTEDTLAECIDSVSLEAEPRSEIPLQEQNYLAVDSPPSGGGWAGWGSWGKSLLSSASATVGHGLTAVKEKAGATLRIHGVNSGSSEGAQPNTENGVPEITDAATDQGPAESPPTSPSSASRGMLSAITNVVQNTGKSVLTGGLDALEFIGKKTMNVLAESDPGFKRTKTLMERTVSLSQMLREAKEKEKQRLAQQLTMERTAHYGMLFDEYQGLSHLEALEILSNESESKVQSFLASLDGEKLELLKNDLISIKDIFAAKELENEENQEEQGLEEKGEEFARMLTELLFELHVAATPDKLNKAMKRAHDWVEEDQTVVSVDVAKVSEEETKKEEKEEKSQDPQEDKKEEKKTKTIEEVYMSSIESLAEVTARCIEQLHKVAELILHGQEEEKPAQDQAKVLIKLTTAMCNEVASLSKKFTNSLTTVGSNKKAEVLNPMISSVLLEGCNSTTYIQDAFQLLLPVLQVSHIQTSCLKAQP [FAM114A1]”, the “solubility in G1/S (log2)” value in the data set with HeLa Kyoto [1] worked out at 0.474. In the data set with HeLa Kyoto [2], the “solubility change mitosis (log2)” value was -0.158. In addition, the thermal stability score is 0.444 in the data set on HeLa Kyoto [3] (setting [5]) and 0.327 in the data set with HeLa Kyoto [3] (cell cycle stage: mitosis). Further, the melting temperature with HeLa Kyoto [4] (cell cycle stage: G1/S) was 52.9 °C; with HeLa Kyoto [4] (cell cycle stage: mitosis), 53.1 °C.
For “MEADKDDTQQILKEHSPDEFIKDEQNKGLIDEITKKNIQLKKEIQKLETELQEATKEFQIKEDIPETKMKFLSVETPENDSQLSNISCSFQVSSKVPYEIQKGQALITFEKEEVAQNVVSMSKHHVQIKDVNLEVTAKPVPLNSGVRFQVYVEVSKMKINVTEIPDTLREDQMRDKLELSFSKSRNGGGEVDRVDYDRQSGSAVITFVEIGVADKILKKKEYPLYINQTCHRVTVSPYTEIHLKKYQIFSGTSKRTVLLTGMEGIQMDEEIVEDLINIHFQRAKNGGGEVDVVKCSLGQPHIAYFEE [NMI]”, in the data set with HeLa Kyoto [1], the “solubility in G1/S (log2)” value was found to be 0.127. Besides, the “solubility change mitosis (log2)” value with HeLa Kyoto [2] was -0.0719. Further, the thermal stability score was -1.52 with HeLa Kyoto [3] (setting [5]) and -4.03 with HeLa Kyoto [3] (cell cycle stage: mitosis). In addition, the melting temperature with HeLa Kyoto [4] (cell cycle stage: G1/S) was 55.4 °C; in the data set on HeLa Kyoto [4] (cell cycle stage: mitosis) it was 55.7 °C.
With “MAGQQFQYDDSGNTFFYFLTSFVGLIVIPATYYLWPRDQNAEQIRLKNIRKVYGRCMWYRLRLLKPQPNIIPTVKKIVLLAGWALFLFLAYKVSKTDREYQEYNPYEVLNLDPGATVAEIKKQYRLLSLKYHPDKGGDEVMFMRIAKAYAALTDEESRKNWEEFGNPDGPQATSFGIALPAWIVDQKNSILVLLVYGLAFMVILPVVVGSWWYRSIRYSGDQILIRTTQIYTYFVYKTRNMDMKRLIMVLAGASEFDPQYNKDATSRPTDNILIPQLIREIGSINLKKNEPPLTCPYSLKARVLLLSHLARMKIPETLEEDQQFMLKKCPALLQEMVNVICQLIVMARNREEREFRAPTLASLENCMKLSQMAVQGLQQFKSPLLQLPHIEEDNLRRVSNHKKYKIKTIQDLVSLKESDRHTLLHFLEDEKYEEVMAVLGSFPYVTMDIKSQVLDDEDSNNITVGSLVTVLVKLTRQTMAEVFEKEQSICAAEEQPAEDGQGETNKNRTKGGWQQKSKGPKKTAKSKKKKPLKKKPTPVLLPQSKQQKQKQANGVVGNEAAVKEDEEEVSDKGSDSEEEETNRDSQSEKDDGSDRDSDREQDEKQNKDDEAEWQELQQSIQRKERALLETKSKITHPVYSLYFPEEKQEWWWLYIADRKEQTLISMPYHVCTLKDTEEVELKFPAPGKPGNYQYTVFLRSDSYMGLDQIKPLKLEVHEAKPVPENHPQWDTAIEGDEDQEDSEGFEDSFEEEEEEEEDDD [SEC63]”, in the data set on HeLa Kyoto [1], the “solubility in G1/S (log2)” value was -0.14. Also, the “solubility change mitosis (log2)” value in the data set with HeLa Kyoto [2] was -0.1. Besides, the figures for the thermal stability score with HeLa Kyoto [3] (setting [5]) and in the data set with HeLa Kyoto [3] (cell cycle stage: mitosis) were -0.144 and -1.37, respectively. For the same sequence, the values for the melting temperature with HeLa Kyoto [4] (cell cycle stage: G1/S) and in the data set on HeLa Kyoto [4] (cell cycle stage: mitosis) were 53 °C and 53.1 °C, respectively.
Turning to “MKSLKAKFRKSDTNEWNKNDDRLLQAVENGDAEKVASLLGKKGASATKHDSEGKTAFHLAAAKGHVECLRVMITHGVDVTAQDTTGHSALHLAAKNSHHECIRKLLQSKCPAESVDSSGKTALHYAAAQGCLQAVQILCEHKSPINLKDLDGNIPLLLAVQNGHSEICHFLLDHGADVNSRNKSGRTALMLACEIGSSNAVEALIKKGADLNLVDSLGYNALHYSKLSENAGIQSLLLSKISQDADLKTPTKPKQHDQVSKISSERSGTPKKRKAPPPPISPTQLSDVSSPRSITSTPLSGKESVFFAEPPFKAEISSIRENKDRLSDSTTGADSLLDISSEADQQDLLSLLQAKVASLTLHNKELQDKLQAKSPKEAEADLSFDSYHSTQTDLGPSLGKPGETSPPDSKSSPSVLIHSLGKSTTDNDVRIQQLQEILQDLQKRLESSEAERKQLQVELQSRRAELVCLNNTEISENSSDLSQKLKETQSKYEEAMKEVLSVQKQMKLGLVSPESMDNYSHFHELRVTEEEINVLKQDLQNALEESERNKEKVRELEEKLVEREKGTVIKPPVEEYEEMKSSYCSVIENMNKEKAFLFEKYQEAQEEIMKLKDTLKSQMTQEASDEAEDMKEAMNRMIDELNKQVSELSQLYKEAQAELEDYRKRKSLEDVTAEYIHKAEHEKLMQLTNVSRAKAEDALSEMKSQYSKVLNELTQLKQLVDAQKENSVSITEHLQVITTLRTAAKEMEEKISNLKEHLASKEVEVAKLEKQLLEEKAAMTDAMVPRSSYEKLQSSLESEVSVLASKLKESVKEKEKVHSEVVQIRSEVSQVKREKENIQTLLKSKEQEVNELLQKFQQAQEELAEMKRYAESSSKLEEDKDKKINEMSKEVTKLKEALNSLSQLSYSTSSSKRQSQQLEALQQQVKQLQNQLAECKKQHQEVISVYRMHLLYAVQGQMDEDVQKVLKQILTMCKNQSQKK [RAI14]”, the “solubility in G1/S (log2)” value with HeLa Kyoto [1] is -0.263. In addition, the “solubility change mitosis (log2)” value in the data set with HeLa Kyoto [2] was determined as 0.267. Also, the thermal stability score came to 0.622 with HeLa Kyoto [3] (setting [5]) and 0.688 with HeLa Kyoto [3] (cell cycle stage: mitosis). Also, the melting temperature in the data set on HeLa Kyoto [4] (cell cycle stage: G1/S) is 49.7 °C; in the data set with HeLa Kyoto [4] (cell cycle stage: mitosis), 50 °C.
Turning to “MEPLSHRGLPRLSWIDTLYSNFSYGTDEYDGEGNEEQKGPPEGSETMPYIDESPTMSPQLSARSQGGGDGVSPTPPEGLAPGVEAGKGLEMRKLVLSGFLASEEIYINQLEALLLPMKPLKATATTSQPVLTIQQIETIFYKIQDIYEIHKEFYDNLCPKVQQWDSQVTMGHLFQKLASQLGVYKAFVDNYKVALETAEKCSQSNNQFQKISEELKVKGPKDSKDSHTSVTMEALLYKPIDRVTRSTLVLHDLLKHTPVDHPDYPLLQDALRISQNFLSSINEDIDPRRTAVTTPKGETRQLVKDGFLVEVSESSRKLRHVFLFTDVLLCAKLKKTSAGKHQQYDCKWYIPLADLVFPSPEESEASPQVHPFPDHELEDMKMKISALKSEIQKEKANKGQSRAIERLKKKMFENEFLLLLNSPTIPFRIHNRNGKSYLFLLSSDYERSEWREAIQKLQKKDLQAFVLSSVELQVLTGSCFKLRTVHNIPVTSNKDDDESPGLYGFLHVIVHSAKGFKQSANLYCTLEVDSFGYFVSKAKTRVFRDTAEPKWDEEFEIELEGSQSLRILCYEKCYDKTKVNKDNNEIVDKIMGKGQIQLDPQTVETKNWHTDVIEMNGIKVEFSMKFTSRDMSLKRTPSKKQTGVFGVKISVVTKRERSKVPYIVRQCVEEVEKRGIEEVGIYRISGVATDIQALKAVFDANNKDILLMLSDMDINAIAGTLKLYFRELPEPLLTDRLYPAFMEGIALSDPAAKENCMMHLLRSLPDPNLITFLFLLEHLKRVAEKEPINKMSLHNLATVFGPTLLRPSEVESKAHLTSAADIWSHDVMAQVQVLLYYLQHPPISFAELKRNTLYFSTDV [ABR]”, in the data set with HeLa Kyoto [1], the “solubility in G1/S (log2)” value was -0.0712. Moreover, in the data set on HeLa Kyoto [2], the “solubility change mitosis (log2)” value is -0.111. Further, the thermal stability score with HeLa Kyoto [3] (setting [5]) was 0.864; in the data set on HeLa Kyoto [3] (cell cycle stage: mitosis), 1.73. Besides, the melting temperature was determined as 48.8 °C in the data set on HeLa Kyoto [4] (cell cycle stage: G1/S) and 49.1 °C in the data set on HeLa Kyoto [4] (cell cycle stage: mitosis).
